Results published in patent US20260001937A1, “NOVEL RECOMBINANT FIBRINOGEN VARIANTS FOR FIBRIN SEALANTS FOR SURGICAL WOUND CARE” (Julius-Maximilians-Universität Würzburg, priority 2022, published 2026).

What was measured:
[1] = target: T1, fibrin gel (Sigma Aldrich fibrinogen, 20 mg/mL, gelled with thrombin, factor XIIIa and CaCl2), P02671
T1 chain 1: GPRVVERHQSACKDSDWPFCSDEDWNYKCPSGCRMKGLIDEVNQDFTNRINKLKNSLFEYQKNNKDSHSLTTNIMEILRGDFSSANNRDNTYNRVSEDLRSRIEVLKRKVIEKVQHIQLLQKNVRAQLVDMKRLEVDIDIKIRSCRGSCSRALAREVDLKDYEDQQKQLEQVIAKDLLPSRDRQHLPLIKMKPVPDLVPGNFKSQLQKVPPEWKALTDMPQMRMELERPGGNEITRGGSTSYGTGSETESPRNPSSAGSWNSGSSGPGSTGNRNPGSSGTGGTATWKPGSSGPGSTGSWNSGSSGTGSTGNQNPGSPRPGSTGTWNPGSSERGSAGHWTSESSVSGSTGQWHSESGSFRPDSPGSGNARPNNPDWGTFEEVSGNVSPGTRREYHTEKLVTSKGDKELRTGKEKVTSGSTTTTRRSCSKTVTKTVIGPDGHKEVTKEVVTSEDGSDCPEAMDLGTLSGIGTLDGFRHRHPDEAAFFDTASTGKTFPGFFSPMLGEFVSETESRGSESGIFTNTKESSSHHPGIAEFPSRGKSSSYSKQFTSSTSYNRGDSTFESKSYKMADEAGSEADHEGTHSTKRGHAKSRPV
T1 chain 2: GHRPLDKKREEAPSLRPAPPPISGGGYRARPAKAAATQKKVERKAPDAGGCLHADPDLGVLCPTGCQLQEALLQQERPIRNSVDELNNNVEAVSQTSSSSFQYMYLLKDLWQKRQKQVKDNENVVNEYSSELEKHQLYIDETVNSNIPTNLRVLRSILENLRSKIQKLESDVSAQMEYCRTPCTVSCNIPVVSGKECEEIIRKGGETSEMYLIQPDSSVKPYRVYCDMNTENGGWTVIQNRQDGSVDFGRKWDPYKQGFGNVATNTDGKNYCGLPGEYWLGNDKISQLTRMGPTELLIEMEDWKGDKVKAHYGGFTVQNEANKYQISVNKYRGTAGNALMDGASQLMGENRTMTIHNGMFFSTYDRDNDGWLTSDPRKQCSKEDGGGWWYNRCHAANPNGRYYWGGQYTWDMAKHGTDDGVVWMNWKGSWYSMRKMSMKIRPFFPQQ
T1 chain 3: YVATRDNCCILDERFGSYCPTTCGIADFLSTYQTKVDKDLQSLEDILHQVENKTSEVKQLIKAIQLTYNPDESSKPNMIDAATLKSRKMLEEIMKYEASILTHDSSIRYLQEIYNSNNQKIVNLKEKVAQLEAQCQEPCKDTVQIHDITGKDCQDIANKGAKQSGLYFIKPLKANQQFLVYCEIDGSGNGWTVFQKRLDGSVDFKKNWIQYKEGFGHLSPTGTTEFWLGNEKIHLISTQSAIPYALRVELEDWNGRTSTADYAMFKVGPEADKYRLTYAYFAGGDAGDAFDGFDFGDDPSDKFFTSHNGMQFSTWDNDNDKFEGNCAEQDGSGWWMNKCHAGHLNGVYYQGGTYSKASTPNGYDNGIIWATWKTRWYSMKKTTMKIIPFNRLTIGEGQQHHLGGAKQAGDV

[2] = target: T2, synthetic gamma-chain peptide ATL(K)SRM with K changed to serine
T2 chain: ATLSSRM

[3] = target: T3, synthetic gamma-chain peptide QLI(K)AIQ with K changed to serine
T3 chain: QLISAIQ

B1: human plasmin (Merck) (protein)
chain: KVYLSECKTGNGKNYRGTMSKTKNGITCQKWSSTSPHRPRFSPATHPSEGLEENYCRNPDNDPQGPWCYTTDPEKRYDYCDILECEEECMHCSGENYDGKISKTMSGLECQAWDSQSPHAHGYIPSKFPNKNLKKNYCRNPDRELRPWCFTTDPNKRWELCDIPRCTTPPPSSGPTYQCLKGTGENYRGNVAVTVSGHTCQHWSAQTPHTHNRTPENFPCKNLDENYCRNPDGKRAPWCHTTNSQVRWEYCKIPSCDSSPVSTEQLAPTAPPELTPVVQDCYHGDGQSYRGTSSTTTTGKKCQSWSSMTPHRHQKTPENYPNAGLTMNYCRNPDADKGPWCFTTDPSVRWEYCNLKKCSGTEASVVAPPPVVLLPDVETPSEEDCMFGNGKGYRGKRATTVTGTPCQDWAAQEPHRHSIFTPETNPRAGLEKNYCRNPDGDVGGPWCYTTNPRKLYDYCDVPQCAAPSFDCGKPQVEPKKCPGRVVGGCVAHPHSWPWQVSLRTRFGMHFCGGTLISPEWVLTAAHCLEKSPRPSSYKVILGAHQEVNLEPHVQEIEVSRLFLEPTRKDIALLKLSSPAVITDKVIPACLPSPNYVVADRTECFITGWGETQGTFGAGLLKEAQLPVIENKVCNRYEFLNGRVQSTELCAGHLAGGTDSCQGDSGGPLVCFEKDKYILQGVTSWGLGCARPNKPGVYVRVSRFVTWIEGVMRNN
[1]
  time course of plasmin cleavage sites in the alpha-chain of fibrin gels, high-resolution ESI-MS (0.005 mU/ml plasmin, up to 2 h): cleavage begins in the αC region of fibrinogen with the most prominent cleavage at positions 602 (K|MADE) and 620 (K|RGHA). Next, cleavage sites further down the αC region are cleaved ... (e. g. positions 527 (K|TFPG), 510 (R|HRHP), 225 (K|MKPV) and 238 (K|SQLQ)). At the same time, cleavage in the α
  time course of plasmin cleavage sites in the beta-chain of fibrin gels, high-resolution ESI-MS: cleavage of the β-chain starts at the N-terminus highlighted by positions 52 (K|REEA) and 72 (R|ARPA) ... Subsequently, the α-helical part between fragment D and E is cleaved by plasmin (e. g. 152 (K|DLWQ) and 160 (K|QVKD))
  time course of plasmin cleavage sites in the gamma-chain of fibrin gels, high-resolution ESI-MS: only one additional cleavage site was found in this time-resolved assay for γ-chain ... With only 5 cleavage sites detected during the early stages of plasmin degradation
[2]
  plasmin cleavage efficiency of synthetic peptide, HPLC: Peptide sequences including S instead of K showed a significant reduction in cleavage efficiency compared to the original sequences
[3]
  plasmin cleavage efficiency of synthetic peptide, HPLC: Peptide sequences including S instead of K showed a significant reduction in cleavage efficiency compared to the original sequences
